Results taken from PMC6284806 (Nanotechnology, 2015).

Target: the molecule itself
Test: AUC

B1: Horse spleen apoferritin (natural protein, UniProt P02791 1-175, looked up)
chain: MSSQIRQNYSTEVEAAVNRLVNLYLRASYTYLSLGFYFDRDDVALEGVCHFFRELAEEKREGAERLLKMQNQRGGRALFQDLQKPSQDEWGTTLDAMKAAIVLEKSLNQALLDLHALGSAQADPHLCDFLESHFLDEEVKLIKKMGDHLTNIQRLVGSQAGLGEYLFERLTLKHD
B1 was tested. Which “stoichiometry N” value did it give?
Its value is 24.
